Target: E2tag (tPA signal+E2(384-711)+tag; soluble E2/NS1 of HCV J1 clone with C-terminal E-tag) (hepatitis C virus (HCV J1 clone))
Assay: SPR, BIACORE X; E2tag amine-coupled to CM5 chip, scFv1-1 injected in HBS buffer

B1: single chain antibody scFv1-1 (scFv)
scFv: QVQLVQSGAEVKKPGSSVKVSCKASGGTYIDQPIGWVRQAPGQGLEWMGGIIPLSGPPHYAQKFQGKVSITADESTSTAYLELTSLTSEDTAVYYCARVLRGYCRRGSCYDWLDPWGQGTLVTVSSGGGGSGGGGSGGGGSALDIQMTQSPSSLSASVGDRVTITCQASQDISNYLNWYQQKPGKAPKLLLYATSRLYSGVPSRFSGSGSGTDFTLSISSLQPEDFATYYCQQTKSFPLTFGGGTKVEIKRAAAEQKLISEEDLGSRSTHHAHHHAA
Q: Which Kd does the source give for B1 here?
A: Its Kd is 2.2 nM.

Source: patent publication US20030157132A1
